The target of experiment [1] is FcRn, recombinant extracellular domain (UniProt P55899). Put plainly: SPR; Biacore 3000; extracellular domain of FcRn immobilized covalently or through enzymatic, site-directed biotinylation; antibody as analyte; steady-state analysis at pH 6.0. (In general: In SPR one partner is held on a chip, and binding of the other changes the refractive index at the surface.)
The target of experiment [2] is FcγRIa, recombinant extracellular domain (UniProt P12314). Put plainly: SPR; Biacore 3000; extracellular domain of FcγRIa immobilized covalently or through enzymatic, site-directed biotinylation; antibody as analyte; kinetic analysis at pH 7.4.
UniProt P12314, sequence (P12314 16-292): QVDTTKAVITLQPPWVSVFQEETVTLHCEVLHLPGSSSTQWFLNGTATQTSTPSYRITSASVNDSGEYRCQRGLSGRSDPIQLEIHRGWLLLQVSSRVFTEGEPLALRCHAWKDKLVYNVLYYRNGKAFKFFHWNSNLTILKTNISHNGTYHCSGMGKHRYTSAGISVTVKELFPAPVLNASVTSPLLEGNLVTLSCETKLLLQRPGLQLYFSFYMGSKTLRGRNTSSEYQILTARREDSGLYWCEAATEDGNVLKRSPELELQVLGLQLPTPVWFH

UniProt P55899, sequence (P55899 whole entry, looked up, the tested form may be a part): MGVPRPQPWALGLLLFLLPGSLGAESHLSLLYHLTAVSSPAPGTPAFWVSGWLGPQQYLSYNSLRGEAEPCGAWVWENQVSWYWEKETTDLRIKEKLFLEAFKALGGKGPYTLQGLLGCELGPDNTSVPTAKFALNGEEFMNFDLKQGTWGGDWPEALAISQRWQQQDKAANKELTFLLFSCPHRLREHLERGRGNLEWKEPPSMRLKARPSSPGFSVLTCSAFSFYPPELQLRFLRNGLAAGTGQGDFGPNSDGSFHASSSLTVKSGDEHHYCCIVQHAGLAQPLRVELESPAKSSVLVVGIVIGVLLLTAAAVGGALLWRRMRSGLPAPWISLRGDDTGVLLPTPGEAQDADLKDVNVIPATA

As usually defined, the Kd is a measure of binding affinity in units of concentration. As usually defined, the koff is a measure of how fast the partners let go of each other. For orientation: kon means the second-order rate constant of association. Take “human IgG1 antibody Variant FS (F241S F243S)”: the Kd in experiment [1] is 2.7 µM. In addition, in experiment [2], the Kd was determined as 0.074 µM, the koff was determined as 0.0021 s⁻¹ and the kon was 29000 M⁻¹ s⁻¹.

The values are drawn from publication PMC2791859.
